Source: PMC8567585

Columns and labels:
[1] = molecular target: T1, His-OsbR (Chromobacterium violaceum ATCC 12472) (UniProt Q7NR79); assay: EMSA; conditions: EMSA with 32P-labeled PCR probes and reduced His-OsbR; buffer, salt, pH and temperature not given (refers to earlier papers); CHP pretreatment at room …
T1 sequence: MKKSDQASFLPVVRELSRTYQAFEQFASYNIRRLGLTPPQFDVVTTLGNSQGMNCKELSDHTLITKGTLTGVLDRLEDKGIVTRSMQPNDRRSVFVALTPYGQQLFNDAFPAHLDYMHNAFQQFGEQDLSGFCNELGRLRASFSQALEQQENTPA

[2] = molecular target: His-OsbR (oxidative stress response and biofilm formation regulator, CV_3905, MarR family) (Chromobacterium violaceum); assay: non-reducing SDS-PAGE (covalent dimers after oxidation); purified His-OsbR incubated with the oxidants TBHP, CHP or H2O2 at 0.1 and 1 mM, room temperature, alkylated with 100 mM NEM for 2 h, non-reducing SDS-PAGE, Coomassie staining; monomer to covalent dimer

Substance	binding [1]	stoichiometry N [2]
TTGGATCCTGCCGGAGCGGAATGCAACTGGACGATATCGCCGGATTGAGGCAGTCGCTGTGCGATCTGCGCGACCGGCTGCTGCAATGAACCCGTCAGGGTTTTGATAGTTAGATAGTGCACTATTAAATAGCTCATTATTTTAATCGCAACGGCGTCAAGCCAAGGAGAGCCAGATGAACCCTCTGCAAAAAGTACTGTATACCGCCGAAGCCACCGCCTGCAGTAAT (double strand) [ohrA promoter]	binds	–
ATCGGGATGCCCAGCACCGCGAACATCATCCAGACCATGAAGCAGAGGGTGAAAGCCAGCGTGCTGCTGGCCAGCACGCTGTAGCGTTTGAATGTCGGGGAAGTCATGGCGCCATATCCATGGAGTGGTCATGGCTACCACGATAAGCGACGGCGGCGCGCGCCGATATTCGTCTGTCGCAGGACTGTCAGTCTGCCAACGGACGAGGCGGATTAACCCTTACGGCTGGCGCCGGCTACTCCCAATGGGGGAGAGTCA (double strand) [narK1 promoter]	no binding	–
CCTCGTAAAAGCGGATGGCGCGGGTGGTGATGTCGAACTCCTGCGCGAGTTCGGTGATGTTGAAAACCTGTTCGCCCATGCGTCTGTCCCTTTATCTTCCCGCTGCGGCCACGCGCGCCACAGTCGGGTGCTTTTGCATTCATTGTCTGTTGACGTTGACGTAAACGTCAAGTTATCGTGATCGAAAGTAGAGCAAACAGTCCAGGAGAAGCAGATGAGCCAGAAAATCGGCGTGGTGGGCGCGGGCACGATGGGCAACGGCATCGCCCAGGTCTTCGCGATGAAGGGTTTCGACG (double strand) [CV_2087 promoter]	binds	–
CTCGCTGGCCGATCTGGGACGCGGCCCGGTGCGGGCGGCCGCCTGATCGCGGTTTCGCGCCCGCTTGGCGCGGGCGCGTCGCGGTTCCGCATAATAATAAATTGCTTGCAATTAAATAGTGCACTATTTATTATGCGGCCATGGAACAAGAAAACACGTGCCCGCCGCAGGACGCGCTTTTGCGGCTGGACCAGCAACTCTGCTTCGCGCTGTATTCCGCC (double strand) [ohrR promoter]	no binding	–
GACCATACTAGACAGCTACGCCACCTTCAGCGCCATCGACCGCCACAGCGAAAGCCGCCAGAAACATCCCTTCGTCGCGCAATTGCTGCGCCGCTATCCGCAAATCACCACGCTG (double strand) [CV_0208 coding region]	no binding	–
GACCAAGTGATAGACGCCGGCACGCTGCGCGCGGTGTACGGCGTGAACGGCCGGGTGGAGCGCTGCACGCAGGGCGTGCCCCACGTGCTGGTGGACGGCCTGGCCGCAGGCTGAGCGCCGCGGCGGGGCGGCGCTCGCCGTCCCGCCCGATTGAAATCTTCACTCCCTCGCAAGAATGCGATTGAAATTGATATTCAATCGCATTTATGATGTCAGCCTCCGCTCAGGAGCCGCCCAGGCGGCCAAAACCAATAACAGGCAGACATCCTCATGACCGAGAAGCTTTAGGCC (double strand) [cbaF promoter]	no binding	–
His-OsbR (oxidative stress response and biofilm formation regulator, CV_3905, MarR family) (natural protein)	–	2
